Source: the supplement of paper PMC12667976

B1: library; numbered along this chain (parent)
chain: MATDAALRRLLRLHRTEIAVAVDSAFPLLHALADHDVVPEDKFQETLHLKEKEGCPQAFHALLSWLLTQDSTAILDFWRVLFKDYNLERYGRLQPILDSFPKDVDLSQPRKGRKPPAVPKALVPPPRLPTKRKASEEARAAAPAALTPRGTASPGSQLKAKPPKKPESSAEQQRLPLGNGIQTMSASVQRAVAMSSGDVPGARGAVEGILIQQVFESGGSKKCIQVGGEFYTPSKFEDSGSGKNKARSSSGPKPLVRAKGAQGAAPGGGEARLGQQGSVPAPLALPSDPQLHQKNEDECAVCRDGGELICCDGCPRAFHLACLSPPLREIPSGTWRCSSCLQATVQEVQPRAEEPRPQEPPVETPLPPGLRSAGEEVRGPPGEPLAGMDTTLVYKHLPAPPSAAPLPGLDSSALHPLLCVGPEGQQNLAPGARCGVCGDGTDVLRCTHCAAAFHWRCHFPAGTSRPGTGLRCRSCSGDVTPAPVEGVLAPSPARLAPGPAKDDTASHEPALHRDDLESLLSEHTFDGILQWAIQSMARPAAPFPS

Variants of: B1
Test: AIRE transcriptional activation functional score (insulin promoter-GFP; nonsense median 0, synonymous median 1) (normalised score); higher = higher AIRE activity (more reporter activation)
Details: with insulin promoter-GFP reporter in HEK293
Outline: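 Using Bxb1 recombinase, codon-optimized NNN-codon libraries for three AIRE regions were inserted into Flp-In T-REx HEK293 landing-pad cells with an insulin core promoter-GFP reporter. After integrants (mCherry+, BFP−) were sorted at day 7 and expanded for 7 days, the top 10% GFP and unselected integrant populations underwent tile-sequencing. Functional scores are wild-type-subtracted enrichments of variants in select over non-select samples. A cutoff of 10 counts per million in non-select applied, and values were rescaled (nonsense median 0, synonymous median 1) and averaged over biological replicates.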

AIRE transcriptional activation functional score, by site and new letter:
S535: M -0.462; Q -0.0138; I 0.212; R 0.12; G 1.74; N 0.164; C 0.706; V 0.00974; F 0.394; W 0.301; L 0.146; H 0.704; K -0.212; Y -1.02; P 0.472; T 0.745; A 1.1
I528: A 0.0102; L 0.543; H -0.237; D 0.302; V 0.759; Q 0.209; N 0.204; W 1; K -0.0103; F 0.795; E 0.137; C 0.179; T 0.117; P 0.0858; R 0.161; M 0.456; S -0.0342; G 0.149; Y 0.65
A532: Q 0.186; F -0.19; G 0.0621; V 0.836; C -0.268; P 0.00951; Y 0.432; D 0.194; T 1.21; L 1.01; I 0.447; N 0.0785; K -0.0221; R 0.215; S 0.141
Q534: H 0.807; V 0.135; L 0.314; K 0.887; G 1.08; A 1.7; C 1.08; F 0.205; D -0.117; Y 0.193; T 1.76; I -0.04; N 1.8; M 0.598; R 0.171; P 0.0913; S 0.372
P539: K 0.00204; G 1.47; I 0.0871; F 0.224; L -0.0017; H 0.373; A 0.371; C 0.233; D 0.00758
M536: V 0.514; I 1.19; N 0.506; E 0.588; C 1.08; T 1.15; D 0.726; K -0.0329; H 1; A 0.0376; Y -0.0719; P 0.215; F 1.95; S 0.272; W 0.508; G 0.186; R -0.0464; L 1.04
A537: K 0.346; G 0.792; I 0.231; T 1.41; L 0.0269; H 0.783; P 0.545; S 1.1; C 0.622; Q 0.813; E 0.915; R -0.0391; V 0.891; M 0.458
Q530: S 0.546; C -0.0453; N 1.52; H 1.21; F -0.0468; M -0.198; A 0.824; D 0.251; W -0.0706; E 0.29; K 0.392; Y 0.438; T 1.05; P 0.385; R -0.0677; V -0.295; L -0.018; I 0.183
W531: I 0.285; R -0.126; Q 0.225; S 0.218; K 0.178; D 0.357; L 0.702; A -0.104; G 0.0105; E -0.39; F 0.12; C 0.138; P -0.179; M 0.434; N -0.329; V -0.0485
L529: D -0.829; Q -0.832; W 1.39; V 0.905; C 0.595; T 0.261; M -0.503; A -0.089; P -0.359; N -0.625; I 1.17; R 0.121; F 0.323; E -0.369; G -0.203; H -0.499; Y 0.598; S -0.21
H523: R -0.128; D 0.678; V 0.847; C -0.042; F 0.43; W -0.242
